Assay results: US20140335107A1 (published 2014)
Where no end group is shown, it is not given here.

How the values were obtained:
[1] = molecular target: T1, extracellular domain of human CD79b fused to Fc (huCD79becd-Fc) (UniProt P40259 29-159); assay: Biacore; IgG
T1 chain: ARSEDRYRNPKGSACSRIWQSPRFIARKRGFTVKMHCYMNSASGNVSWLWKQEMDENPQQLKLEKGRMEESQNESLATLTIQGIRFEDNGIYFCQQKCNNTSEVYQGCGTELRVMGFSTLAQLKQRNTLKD

[2] = molecular target: T2, extracellular domain of human CD79b (huCD79becd) (UniProt P40259 29-159); assay: Biacore; IgG
T2 chain: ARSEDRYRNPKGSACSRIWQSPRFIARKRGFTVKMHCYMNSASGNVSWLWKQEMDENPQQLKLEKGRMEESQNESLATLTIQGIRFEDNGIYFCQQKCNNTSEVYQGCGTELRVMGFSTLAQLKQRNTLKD

[3] = molecular target: T1, extracellular domain of human CD79b …; assay: Biacore; Fab
[4] = molecular target: T2, extracellular domain of human CD79b …; assay: Biacore; Fab
[5] = molecular target: T3, 16 amino acid peptide containing the epitope for MA79b (ARSEDRYRNPKGSACK) (also: biotinylated (site not given here)); assay: Biacore; IgG
T3 peptide: ARSEDRYRNPKGSACK

Row | Binder | Kd [2] [nM] | further results
1 | murine anti-CD79b monoclonal antibody MA79b (antibody, V domains shown) VH: EVQLQQSGAELMKPGASVKISCKATGYTFSSYWIEWVKQRPGHGLEWIGEILPGGGDTNYNEIFKGKATFTADTSSNTAYMQLSSLTSEDSAVYYCTRRVPVYFDYWGQGTSVTVSS VL: DIVLTQSPASLAVSLGQRATISCKASQSVDYDGDSFLNWYQQKPGQPPKLFIYAASNLESGIPARFSGSGSGTDFTLNIHPVEEEDAATYYCQQSNEDPLTFGAGTELELKR | 4.7 | Kd [1]: 2 nM
2 | MA79b (Fab) (antibody, V domains shown) VH: EVQLQQSGAELMKPGASVKISCKATGYTFSSYWIEWVKQRPGHGLEWIGEILPGGGDTNYNEIFKGKATFTADTSSNTAYMQLSSLTSEDSAVYYCTRRVPVYFDYWGQGTSVTVSS VL: DIVLTQSPASLAVSLGQRATISCKASQSVDYDGDSFLNWYQKPGQPPKLFIYAASNLESGIPARFSGSGSGTDFTLNIHPVEEEDAATYYCQQSNEDPLTFGAGTELELKR |  | Kd [3]: 200 nM
3 | huMA79b graft variant with HVR-L2 of SEQ ID NO: 22 (huMA79b L2-2), Fab (Fab, V domains shown) VH: EVQLVESGGGLVQPGGSLRLSCAASGYTFSSYWIEWVRQAPGKGLEWVGEILPGGGDTNYNEIFKGRFTISADTSKNTAYLQMNSLRAEDTAVYYCTRRVPVYFDYWGQGTLVTVSS VL: DIQMTQSPSSLSASVGDRVTITCKASQSVDYDGDSFLNWYQQKPGKAPKLLIYAARKLGRGVPSRFSGSGSGTDFTLTISSLQPEDFATYYCQQSNEDPLTFGQGTKVEIKR |  | Kd [3]: 44 nM; Kd [4]: 39 nM
4 | MA79b-grafted humanized antibody (huMA79b graft), IgG (antibody, V domains shown) VH: EVQLVESGGGLVQPGGSLRLSCAASGYTFSSYWIEWVRQAPGKGLEWVGEILPGGGDTNYNEIFKGRFTISADTSKNTAYLQMNSLRAEDTAVYYCTRRVPVYFDYWGQGTLVTVSS VL: DIQMTQSPSSLSASVGDRVTITCKASQSVDYDGDSFLNWYQQKPGKAPKLLIYAASNLESGVPSRFSGSGSGTDFTLTISSLQPEDFATYYCQQSNEDPLTFGQGTKVEIKR | 261 | 
5 | hu MA79b H3-10 (IgG) (antibody, V domains shown) VH: EVQLVESGGGLVQPGGSLRLSCAASGYTFSSYWIEWVRQAPGKGLEWVGEILPGGGDTNYNEIFKGRFTISADTSKNTAYLQMNSLRAEDTAVYYCTRRVPIRLDYWGQGTLVTVSS VL: DIQMTQSPSSLSASVGDRVTITCKASQSVDYDGDSFLNWYQQKPGKAPKLLIYAASNLESGVPSRFSGSGSGTDFTLTISSLQPEDFATYYCQQSNEDPLTFGQGTKVEIKR | 29 | 
6 | MA79b-grafted humanized antibody variant L2-2 (huMA79b L2-2), IgG (antibody, V domains shown) VH: EVQLVESGGGLVQPGGSLRLSCAASGYTFSSYWIEWVRQAPGKGLEWVGEILPGGGDTNYNEIFKGRFTISADTSKNTAYLQMNSLRAEDTAVYYCTRRVPVYFDYWGQGTLVTVSS VL: DIQMTQSPSSLSASVGDRVTITCKASQSVDYDGDSFLNWYQQKPGKAPKLLIYAARKLGRGVPSRFSGSGSGTDFTLTISSLQPEDFATYYCQQSNEDPLTFGQGTKVEIKR | 43 | 
7 | hu MA79b H1-6 (IgG) (antibody, V domains shown) VH: EVQLVESGGGLVQPGGSLRLSCAASGYPFTRYWINWVRQAPGKGLEWVGEILPGGGDTNYNEIFKGRFTISADTSKNTAYLQMNSLRAEDTAVYYCTRRVPVYFDYWGQGTLVTVSS VL: DIQMTQSPSSLSASVGDRVTITCKASQSVDYDGDSFLNWYQQKPGKAPKLLIYAASNLESGVPSRFSGSGSGTDFTLTISSLQPEDFATYYCQQSNEDPLTFGQGTKVEIKR | 42 | 
8 | MA79b-grafted humanized antibody variant L2/H3 (huMA79b L2/H3), IgG (antibody, V domains shown) VH: EVQLVESGGGLVQPGGSLRLSCAASGYTFSSYWIEWVRQAPGKGLEWVGEILPGGGDTNYNEIFKGRFTISADTSKNTAYLQMNSLRAEDTAVYYCTRRVPIRLDYWGQGTLVTVSS VL: DIQMTQSPSSLSASVGDRVTITCKASQSVDYDGDSFLNWYQQKPGKAPKLLIYAARKLGRGVPSRFSGSGSGTDFTLTISSLQPEDFATYYCQQSNEDPLTFGQGTKVEIKR | 3 | Kd [5]: 1 nM; Kd [1]: 2 nM
